Measurements from article PMC5662698 (2017).
No end group written: not given here.

Columns and labels:
[1] = molecular target: TMR-labeled DnaK (DnaK FRET construct C15A/M404C/T437C labelled with tetramethylrhodamine) (E. coli, UniProt P0A6Y8 1-638, C15A | M404C | T437C, tetramethylrhodamine (TMR, from 5-IATR) on both introduced cysteines (M404C, T437C)); experiment: ATP
[2] = molecular target: BiP EPR construct BiP-C41A/C420A/V429C (human, UniProt P11021 19-654, C41A | C420A | V429C); experiment: FP
[3] = molecular target: human BiP, wild type (human, UniProt P11021 19-654); experiment: FP
[4] = molecular target: BiP FRET construct BiP-C41A/C420A/V429C/T462C (human, UniProt P11021 19-654, C41A | C420A | V429C | T462C); experiment: FP
[5] = molecular target: BiP-C41A/C420A (Homo sapiens); experiment: FP
[6] = molecular target: T1, DnaK-C15A/M404C/T437C (Escherichia coli (strain K12)); experiment: FP
T1 chain: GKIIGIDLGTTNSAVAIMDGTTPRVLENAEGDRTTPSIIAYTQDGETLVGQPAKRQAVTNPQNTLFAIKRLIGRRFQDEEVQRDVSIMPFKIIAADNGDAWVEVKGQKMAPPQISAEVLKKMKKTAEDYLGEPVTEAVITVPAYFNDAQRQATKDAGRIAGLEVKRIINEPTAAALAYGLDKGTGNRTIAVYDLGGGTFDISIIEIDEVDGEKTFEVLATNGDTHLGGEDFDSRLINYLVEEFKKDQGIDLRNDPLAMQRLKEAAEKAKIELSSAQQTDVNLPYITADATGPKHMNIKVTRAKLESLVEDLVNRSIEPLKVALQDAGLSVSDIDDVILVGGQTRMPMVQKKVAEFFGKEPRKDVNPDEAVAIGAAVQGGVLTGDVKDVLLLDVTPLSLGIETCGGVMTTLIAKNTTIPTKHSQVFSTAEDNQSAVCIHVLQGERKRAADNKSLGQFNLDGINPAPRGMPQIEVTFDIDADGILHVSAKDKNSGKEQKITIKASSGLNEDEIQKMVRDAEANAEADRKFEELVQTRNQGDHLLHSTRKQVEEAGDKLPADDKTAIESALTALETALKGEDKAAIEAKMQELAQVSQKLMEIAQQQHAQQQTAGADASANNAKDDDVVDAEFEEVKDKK

Chain of BiP EPR construct BiP-C41A/C420A/V429C (P11021 19-654 C41A/C420A/V429C): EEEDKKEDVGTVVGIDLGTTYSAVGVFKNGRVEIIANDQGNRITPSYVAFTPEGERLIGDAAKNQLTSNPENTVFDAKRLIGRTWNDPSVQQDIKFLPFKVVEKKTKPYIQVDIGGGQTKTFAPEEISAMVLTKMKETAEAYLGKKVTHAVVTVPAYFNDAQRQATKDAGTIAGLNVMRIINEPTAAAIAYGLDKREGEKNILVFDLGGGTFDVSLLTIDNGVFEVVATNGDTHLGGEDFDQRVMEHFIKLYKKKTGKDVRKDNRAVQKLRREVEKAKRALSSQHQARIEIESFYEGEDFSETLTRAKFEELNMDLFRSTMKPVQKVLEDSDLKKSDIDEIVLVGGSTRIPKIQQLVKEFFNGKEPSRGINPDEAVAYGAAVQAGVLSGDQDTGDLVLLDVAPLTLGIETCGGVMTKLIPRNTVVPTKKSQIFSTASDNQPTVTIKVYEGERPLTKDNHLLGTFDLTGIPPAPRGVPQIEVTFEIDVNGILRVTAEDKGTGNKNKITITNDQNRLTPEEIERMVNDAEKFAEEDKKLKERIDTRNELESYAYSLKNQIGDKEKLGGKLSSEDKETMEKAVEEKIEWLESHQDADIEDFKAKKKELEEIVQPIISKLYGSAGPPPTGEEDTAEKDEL
Chain of BiP-C41A/C420A (Homo sapiens) (chain, as listed by the source C41A C420A): as the sequence (P11021 19-654 C41A/C420A/V429C) above, with C411V counted along it
Chain of BiP FRET construct BiP-C41A/C420A/V429C/T462C (P11021 19-654 C41A/C420A/V429C/T462C): as the sequence (P11021 19-654 C41A/C420A/V429C) above, with T444C counted along it
Chain of human BiP, wild type (P11021 19-654): as the sequence (P11021 19-654 C41A/C420A/V429C) above, with A23C, A402C, C411V counted along it

B1: DnaJ (natural protein)
chain: MAKQDYYEILGVSKTAEEREIRKAYKRLAMKYHPDRNQGDKEAEAKFKEIKEAYEVLTDSQKRAAYDQYGHAAFEQGGMGGGGFGGGADFSDIFGDVFGDIFGGGRGRQRAARGADLRYNMELTLEEAVRGVTKEIRIPTLEECDVCHGSGAKPGTQPQTCPTCHGSGQVQMRQGFFAVQQTCPHCQGRGTLIKDPCNKCHGHGRVERSKTLSVKIPAGVDTGDRIRLAGEGEAGEHGAPAGDLYVQVQVKQHPIFEREGNNLYCEVPINFAMAALGGEIEVPTLDGRVKLKVPGETQTGKLFRMRGKGVKSVRGGAQGDLLCRVVVETPVGLNERQKQLLQELQESFGGPTGEHNSPRSKSFFDGVKKFFDDLTR
Kd [1]: 182 nM

fluorescein-NRLLLTG [NR peptide (NRLLLTG), fluorescein-labelled]
Kd [2]: 820 nM
Kd [3]: 910 nM
Kd [4]: 610 nM
Kd [5]: 850 nM
Kd [6]: 2120 nM
